“Also recorded” adds a separate entry of the source.
Experiments:
[1] = Example 2: occurrence and/or severity of ulcers; assay type: in vivo; details: end point: slit lamp microscopy for surface (ir)regularity
Source text: (§1) Compositions can also be administered in effective amounts to promote re-epithelialization, reduce the occurrence and/or severity of ulcers and preserve nerve function (appropriate signal potentiation) and/or integrity (physical state of the nerve itself). Objective measures for re-epithelialization include, without limitation, slit lamp microscopy with fluorescence staining. Objective measures for reduction and/or severity of ulcers include, without limitation, slit lamp microscopy for surface (ir)regularity. Objective measures for preservation of nerve function include corneal sensitivity measures. Objective measures for preservation of nerve integrity include in vitro confocal microscopy to determine the nerve fiber health (length, diameters and branches.)
(§2) A number of experiments are conducted to further define the role of up-regulation of TGFβ1, TGFβ2, TGFβ3, Serpine 1, fibronectin, lumican, epidermal growth factor ligands, activin and Nodal as well as the down-regulation of sEH/Ephx2 in the promotion of wound healing, promotion of re-epithelialization, reduction of the occurrence and/or severity of ulcers, preservation of nerve function and/or integrity, promotion of eye health and maintenance of vision. In the experiments, each experiment having relevant control conditions, each of the listed compounds is administered as part of a therapeutic composition (including as a direct therapeutic and/or as part of a genetic therapy as described herein).

[2] = Example 2: promotion of re-epithelialization; assay type: in vivo; details: end point: establishment of a biological barrier or Superficial Punctate Keratitis
Source text: as §1, §2

[3] = test system: corneas of type 1 DM rats and mice and type 2 DM rats; assay: Epithelial wound healing in DM corneas of three rodent models (summary statements); assay type: in vivo; details: exogenous TGFβ3
Source text: The described genome-wide cDNA microarrays were used to compare the gene expression profiles of WH versus UW and DM versus NL CECs. […] Without being bound to a single theory, the effects of TGFβs on epithelial wound closure are related to its ability to activate Smad-dependent and -independent pathways, to modulate its own expression, and to mediate target gene expression.
The altered expression of TGFβ3 was also confirmed in cultured human corneas post wound healing, indicating the relevance of the study. […] While the mechanisms underlying hyperglycemia-suppressed wound-induced TGFβ3 expression is unclear, early inhibitory effects of hyperglycemia on TGFβ3 expression, which differs from that of TGFβ1 (42), may exacerbate the suppression of TGFβ3 up-regulation in response to wounding.

[4] = test system: Smad2/3, TGFβ1, TGFβ2, TGFβ3 in WH CECs; assay: Western blotting of CECs of TGFβ3 treated GK rat corneas; assay type: in vivo; details: GK rats
Experimental: (§3) FIGS. 6A-6C. Effects of TGFβ3 on epithelial wound closure in GK rat corneas. (FIG. 6A) A total of 40 ng recombinant TGFβ3, with PBS as the control, was injected into subconjunctival space at two sites (10 μl each) of GK rats 4 hours prior to wounding. Corneal epithelial wound of 5-mm diameter was made and allowed to heal for 42 h and then fluorescence stained, and photographed. (FIG. 6B) Changes in the mean of the remaining wound areas in pixels were calculated by Adobe Photoshop software with p value listed, n=5. (FIG. 6C). CECs collected during wounding (Con) and 42 hpw in PBS and TGFβ3 treated corneas were extracted and subjected to Western blotting with listed antibodies; two samples out of 5 from post wounding corneas were shown with actin as the internal control. The anti-TGFβ1-3 antibodies recognized both latent (44, 25, 47 kDa, respectively) and active (15, 12, 15 kDa, respectively) forms, giving two bands in Western blotting. These figures are representatives of 5 corneas per condition from 2 independent experiments; ** p<0.01.
Determination of Protein Expression and Phosphorylation by Western Blot Analysis. The epithelial cells removed during corneal debridement (the control) and post-wound, but prior to wound closure, were collected from NL and DM rat corneas and lysed with radioimmunoprecipitation assay (RIPA) buffer. Protein concentrations were determined using Micro BCA kits. Levels of various proteins or their phosphorylation were determined using specific antibodies. For each condition, two samples were shown with β-actin levels as the internal controls.
Exogenous TGFβ3 accelerates delayed epithelial wound closure in DM corneas. Whether exogenously-added TGFβ3 in DM corneas accelerates delayed epithelial wound closure in GK and STZ B6 mice was assessed next. […] To assess if exogenously added TGFβ3 affects the isoform expression, antibodies against TGFβ1-3 were used for Western blotting. […] While some elevated active TGFβ3 molecules could be from exogenously added TGFβ3 (15 kDa), the latent form (47 kDa) can only be from endogenous sources, indicating an auto-regulation of TGFβ3 expression in rat corneas.

Serpine 1 = assay: Realtime-PCR for Serpine 1 expression in CECs of TGFβ3 treated mouse corneas; assay type: in vivo; details: NL and DM mice, 16 or 24 hpw
Experimental: (§4) FIGS. 7A-7C. Effects of TGFβ3 on epithelial wound closure in B6 and STZ B6 mouse corneas. […] A 2 mm epithelial wound was made and allowed to heal for 16 h in B6 mice and 24 h in STZ B6 mice, and then fluorescence stained, and photographed. 1) NL cornea injected with PBS, 2) NL corneal injected with TGFβ3, 3) DM (STZ) cornea injected with PBS, 4) DM corneal injected with TGFβ3. (FIG. 7B) Changes in the mean of the remaining wound areas in pixels were calculated by Adobe Photoshop software with p value listed, n=5. (FIG. 7C). CECs collected during wounding (first 2 lanes) and 16 hpw (1, 2) or 24 hpw (3, 4) in PBS (1, 3) and TGFβ3 (2, 4) treated corneas were extracted and subjected to realtime-PCR analysis for Serpine 1 expression, N=3, **p<0.01.
RNA Extraction and Real-time PCR. For RNA isolation, CECs were scraped off of corneas, with 2 corneas pooled into 1 tube as one sample. RNA was extracted from the collected CECs using RNeasy Mini Kit (QIAGEN). cDNA was generated with an oligo(dT) primer (Invitrogen) followed by analysis using real-time PCR with the Power SYBR Green PCR Master Mix (AB Applied Biosystems), based on the expression of β-actin.

adult skin wounds = details: failure due to increased angiogenesis in post-surgery skin; cited from earlier work
STZ B6 mouse corneas = assay: Epithelial wound closure in STZ B6 mouse corneas after subconjunctival recombinant TGFβ3; assay type: in vivo; details: STZ B6 mice, 14 ng subconjunctival 4 hours prior to wounding, 2 mm wound, 16 and 24 hpw, vs PBS
Experimental: as §4
Corneal Epithelial Debridement Wound. Anesthetized rats and mice were first demarcated with a trephine in the central cornea (5-mm circular wound for rats and 2 mm for mice) and CECs were removed with a blunt scalpel blade under a dissecting microscope (4; 6; 7). The blade with scraped CECs was immediately immersed into liquid nitrogen and the visible ice was collected into a test tube, placed on dry ice and stored at −80° C. The sample was marked as unwounded (UW). Bacitracin ophthalmic ointment was applied to the cornea after surgery to prevent infection. […]

GK rat corneas = assay: Epithelial wound closure in GK rat corneas after subconjunctival recombinant TGFβ3; assay type: in vivo; details: GK rats, 40 ng in 20 μl subconjunctival 4 hours prior to debridement, 5-mm wound, 42 h, vs PBS
Experimental: as §3
Corneal Epithelial Debridement Wound. […]
Exogenous TGFβ3 accelerates delayed epithelial wound closure in DM corneas. Whether exogenously-added TGFβ3 in DM corneas accelerates delayed epithelial wound closure in GK and STZ B6 mice was assessed next. […]

**Q.** What does the source list for Activin?
**A.** Treatment Outcome: Reduces occurrence and/or severity of ulcers [1]: Reduces occurrence; Treatment Outcome: Promotes re-epithelialization [2]: Promotes

**Q.** Which results are given for “TGβ1: TGFβ isoform 1 administered as part of a therapeutic composition”?
**A.** Treatment Outcome: Reduces occurrence and/or severity of ulcers [1]: Reduces occurrence; Treatment Outcome: Promotes re-epithelialization [2]: Promotes

B1: Nodal: composition that up-regulates SMAD-signaling (protein, UniProt Q96S42 238-347, looked up)
Nodal homolog: HHLPDRSQLCRKVKFQVDFNLIGWGSWIIYPKQYNAYRCEGECPNPVGEEFHPTNHAYIQSLLKRYQPHRVPSTCCAPVKTKPLSMLYVDNGRVLLDHHKDMIVEECGCL
**Q.** With B1 as the molecule, how does the “Treatment Outcome: Reduces occurrence and/or severity of ulcers” value [1] read?
**A.** Reduces occurrence

**Q.** What about the “Treatment Outcome: Promotes re-epithelialization” value [2] of the same molecule?
**A.** Promotes

B2: TGβ2: TGFβ isoform 2 administered as part of a therapeutic composition (protein)
chain: ALDAAYCFRNVQDNCCLRPLYIDFKRDLGWKWIHEPKGYNANFCAGACPYLWSSDTQHTKVLSLYNTINPEASASPCCVSQDLEPLTILYYIGNTPKIEQLSNMIVKSCKCS
**Q.** With B2 as the molecule, how does the “Treatment Outcome: Reduces occurrence and/or severity of ulcers” value [1] read?
**A.** Reduces occurrence

**Q.** And the “Treatment Outcome: Promotes re-epithelialization” value [2]?
**A.** Promotes

B3: TGFβ3: recombinant Transforming Growth Factor beta 3 isoform, injected subconjunctivally (protein)
chain: ALDTNYCFRNLEENCCVRPLYIDFRQDLGWKWVHEPKGYYANFCSGPCPYLRSSDTTHSTVLGLYNTLNPEASASPCCVPQDLEPLTILYYVGRTPKVEQLSNMVVKSCKCS
**Q.** Which “Treatment Outcome: Reduces occurrence and/or severity of ulcers” value [1] does the source give for B3 here?
**A.** Reduces occurrence

**Q.** And the “epithelial wound healing in DM corneas” value [3]?
**A.** promotes epithelial wound healing; also recorded: partially restores the healing rate

**Q.** And the “Smad2/3 phosphorylation in WH CECs” value ([4]; 42 hpw)?
**A.** enhancing

**Q.** And the “TGFβ3 expression (latent form, endogenous)” value ([4]; WH CECs)?
**A.** increased

**Q.** What about the TGFβ1 expression ([4]; WH DM CECs) of the same molecule?
**A.** no effects

**Q.** And the “levels of TGFβ2” value ([4]; all samples)?
**A.** low and unchanged

**Q.** What about the “Treatment Outcome: Promotes re-epithelialization” value [2] of the same molecule?
**A.** Promotes

**Q.** And the “Serpine 1 mRNA levels” value (Serpine 1)?
**A.** correlated to the levels of TGFβ3 activity

**Q.** What about the “outcome of phase 3 clinical trials as anti-scarring agent” value (adult skin wounds) of the same molecule?
**A.** considered a failure

**Q.** And the “rate of epithelial closure” value (STZ B6 mouse corneas)?
**A.** significantly increased

**Q.** And the “rate of wound closure” value (GK rat corneas)?
**A.** substantially increasing

Source: patent US20160310572A1, “COMPOSITIONS AND METHODS TO DIAGNOSE DIABETES AND/OR TO TREAT NEGATIVE EFFECTS OF DIABETES” (WAYNE STATE UNIVERSITY, priority 2013, published 2016)
